Results reported in patent publication US10709762B2, “Use of M-CSF for preventing or treating myeloid cytopenia and related complications” (priority 2013, dated 2020).

Key:
[1] = tested on: endogenous PU.1 protein in single HSC; experiment: Intra-splenic injection of CFSE-labelled HSC, PU.1 immunofluorescence; format: in vivo, mice; conditions: M-CSF receptor deficient HSC
Protocol: For analysis of HSC in vivo, 1500 to 7000 FACS sorted CD150^+ CD34^− KSLF HSC were stained 10 min at 37° C. with 3 μM CFSE (Invitrogen) in PBS/0.5% BSA, washed 3× in PBS/0.5% BSA and injected in 30 μl PBS (containing or not 1 μg of isotype control or AFS98 α-M-CSFR antibody^26 or 2 μM GW2580, 10 μM Ly29400, 10 μM PD98059 or 2 μM SU6656 inhibitors in 0.9% DMSO) into the spleen of anesthetized mice. After 24 h spleens were embedded in OCT (Tissue-Tek, Sakura) and frozen at −80° C. Cryostat sections (5 μm) were prepared from the entire organ, dried and fixed 10 min in 4% PFA/PBS at room temperature (RT) and every 10th section was further processed. After washes in PBS, slides were blocked for 1 hour at RT in PBS/2% BSA/1% Donkey serum/1% FCS/0.1% saponin, incubated for 36 h at 4° C. with anti-PU.1 polyclonal antibody (Santa Cruz) in PBS/0.05% saponin (1:50), washed and incubated with secondary Alexa 546-donkey-anti-rabbit antibody (Molecular probes) in PBS/0.05% saponin (1:500). All immunofluorescence samples were mounted with ProLong Gold DAPI antifade (Molecular probes) and analyzed by multifluorescent microscopy on a Zeiss Axioplan 2. All CFSE+ cells were analysed for PU.1 expression up to ≥30 or ≥50 cells as indicated. Cell counts and staining were verified by a second trained microscopist blinded to sample identity. […]

CD150hi HSC = experiment: In vitro culture of HSC, proliferation and survival; format: cell-based, mice; conditions: culture in the presence of M-CSF
Protocol: (§1) CD150+CD34− KSLF HSC or CD150+CD34− CD48− KSLF HSC (single cells) were sorted into S-clone SF-03 medium (Sanko Jyunyaku) with 10% FBS supplemented with 100 U/ml penicillin and […] streptomycin (both Invitrogen) and cultivated in uncoated U-Shape 96 well plates (Greiner) in 100 μl SCM, 20 ng/ml rSCF, 50 ng/ml rTPO+/−100 ng/ml rM-CSF or 100 ng/ml rGM-CSF or 100 ng/ml rG-CSF. All cytokines were murine and from PeproTech. Cell viability was analyzed by AnnexinV and Propidium iodide FACS staining^35.

HSC = experiment: Transplantation of M-CSF primed HSC into sub-lethally irradiated recipients, analysis of progeny; format: in vivo, mice
Protocol: CD45.1 and C57Bl/6 mice were obtained from Charles River. PU.1-GFP^31 M-CSFR^−/−27 and PU.1^fl/fl 32 mice have been described. Age- and sex-matched CD45.1 recipients that were reconstituted as described^3 with CD45.2 foetal liver from wt or M-CSFR^−/− embryos^27 and PU.1^fl/fl or PU.1^fl/fl::MxCre bone marrow, were used to isolate CD150+CD34− KSLF HSC not earlier than 8 weeks after reconstitution. For in vivo injections the 10 μg/mouse M-CSF, 5 mg/kg LPS (055:B5 E. coli) or sorted cells were injected in 100 μl of PBS into the retro-orbital sinus. For HSC transplantation 400 CD150+CD34− KSLF HSC were sorted from CD45.2 mice and mixed with 100.000 Lin^+ Sca^− CD45.1 carrier cells prior to injection into sub-lethally irradiated (4.5 Gy) CD45.1 recipient mice. For competitive transplantations, 1300 CD150+, CD34-KSLF HSC were isolated 16 h after control or 10 μg M-CSF injection from actin-GFP CD45.2 mice^33, mixed with equal numbers of CD45.2 competitor HSC and injected with 300.000 Lin^+ Sca^− RC-lysed CD45.1 carrier cells into sub-lethally irradiated (4.5 Gy) CD45.1 recipients. Contribution to platelets, CD19+ B-cells and CD11b+ myeloid cells was analysed after 4 and 6 weeks in the blood from mice with at least 5% GFP+ donor cells. For PU.1 deletion PU.1^fl/fl or PU.1^fl/fl::MxCre reconstituted mice were intra-peritoneally injected with 5 μg/g Polyinosinic:polycytidylic acid 7 and 9 days prior to control (PBS) or 10 μg M-CSF injection. All mouse experiments were performed under specific pathogen-free conditions in accordance with institutional guidelines.
For FACS sorting and analysis we used described staining protocols^3 and published stem and progenitor cell definitions^34, FACSCANTO™ BD™ LSRII and FACSARIA™ III equipment and DIVA™ software (BECTON-DICKINSON), analysing only populations with at least 200 events. For HSC analysis we used antibodies anti-CD34-FITC (clone RAM34, BD BIOSCIENCES), anti-CD135-PE (clone A2F10.1, BD BIOSCIENCES), anti-CD150-Pe-Cy7 (clone TC15-12F12.2, BIOLEGEND), anti-CD117-APC H7 (clone 2B8, BD BIOSCIENCES), anti-Sca-1-Pe-Cy5 (clone D7, BIOLEGEND), anti-CD48-APC (clone HM48-1, BIOLEGEND). Diverging from this or in addition we used antibodies anti-CD34 Alexa 700 (clone RAM34, BD BIOSCIENCES), anti-CD16/32 PE (clone 2.4G2, BD BIOSCIENCES), anti-CD11b PE-CF594 (clone M1/70, BD BIOSCIENCES), anti-CD19PE-Cy7 (clone 1D3, BD biosciences), anti CD45.2 APC (clone 104, BD BIOSCIENCES) and anti CD45.1 Pacific Blue (clone A20, BD BIOSCIENCES) for progenitor and blood cell analysis. LIVE/DEAD Fixable Violet Dead cell dye (Invitrogen) was used as viability marker.

[2] = tested on: PU.1 expression in sorted HSC; experiment: Quantitative RT-PCR of PU.1 expression in sorted HSC in culture; format: cell-based, mice; conditions: 16 h in culture with cytokine, 100 ng/ml
Protocol: as §1
Total RNA was isolated and reverse transcribed with μMACS™ ONE-STEP T7 template kit (Miltenyi Biotec) and analysed by quantitative real-time PCR using TAQMAN® Universal PCR Master Mix and a 7500 Fast Real Time PCR System sequence detection system (both Applied Biosystem), following the manufacturers' instructions.

B1: M-CSF: recombinant murine macrophage colony stimulating factor from PeproTech, used in Example 1 (protein, UniProt P07141 33-552, looked up)
Macrophage colony-stimulating …: KEVSEHCSHMIGNGHLKVLQQLIDSQMETSCQIAFEFVDQEQLDDPVCYLKKAFFLVQDIIDETMRFKDNTPNANATERLQELSNNLNSCFTKDYEEQNKACVRTFHETPLQLLEKIKNFFNETKNLLEKDWNIFTKNCNNSFAKCSSRDVVTKPDCNCLYPKATPSSDPASASPHQPPAPSMAPLAGLAWDDSQRTEGSSLLPSELPLRIEDPGSAKQRPPRSTCQTLESTEQPNHGDRLTEDSQPHPSAGGPVPGVEDILESSLGTNWVLEEASGEASEGFLTQEAKFSPSTPVGGSIQAETDRPRALSASPFPKSTEDQKPVDITDRPLTEVNPMRPIGQTQNNTPEKTDGTSTLREDHQEPGSPHIATPNPQRVSNSATPVAQLLLPKSHSWGIVLPLGELEGKRSTRDRRSPAELEGGSASEGAARPVARFNSIPLTDTGHVEQHEGSSDPQIPESVFHLLVPGIILVLLTVGGLLFYKWKWRSHRDPQTLDSSVGRPEDSSLTQDEDRQVELPV
PU.1 activation in M-CSFR-/- HSC, M-CSF stimulated versus control recipients [1]: no higher activation of PU.1
proliferation or survival advantage of cultured CD150hi HSC (CD150hi HSC): no proliferation or survival advantage
myeloid differentiation preference of M-CSF primed HSC after deletion of PU.1 (HSC; HSC with deleted PU.1 alleles, spleen 2 weeks): abolished
ratio of GMP to MEP progenitors in the spleen (HSC; in vivo M-CSF primed CD45.2 HSC, after 2 weeks): increased ratio
myeloid to lymphoid cell ratio in peripheral blood (HSC; in vivo M-CSF primed HSC, after 4 weeks): increased myeloid to lymphoid cell ratio
ratio of GMP to MEP developing from PU.1+ HSC versus PU.1- HSC (HSC; in vivo priming with M-CSF, spleen 2 weeks after transplantation): higher ratio
PU.1 expression in FACS purified HSC [2]: increased PU.1 expression
